B1: FlagHis12-tagged mouse Mel18 (natural protein)
chain: MHRTTRIKITELNPHLMCALCGGYFIDATTIVECLHSFCKTCIVRYLETNKYCPMCDVQVHKTRPLLSIRSDKTLQDIVYKLVPGLFKDEMKRRRDFYAAYPLTEVPNGSNEDRGEVLEQEKGALGDDEIVSLSIEFYEGVRDREEKKNLTENGDGDKEKTGVRFLRCPAAMTVMHLAKFLRNKMDVPSKYKVEILYEDEPLKEYYTLMDIAYIYPWRRNGPLPLKYRVQPACKRLTLPTVPTPSEGTNTSGASECESVSDKAPSPATLPATSSSLPSPATPSHGSPSSHGPPATHPTSPTPPSTAAGTTTATNGGTSNCLQTPSSTSRGRKMTVNGAPCPP
B2: FlagHis12-tagged mouse Bmi1 (natural protein)
chain: MHRTTRIKITELNPHLMCVLCGGYFIDATTIIECLHSFCKTCIVRYLETSKYCPICDVQVHKTRPLLNIRSDKTLQDIVYKLVPGLFKNEMKRRRDFYAAHPSADAANGSNEDRGEVADEEKRIITDDEIISLSIEFFDQSRLDRKVNKEKPKEEVNDKRYLRCPAAMTVMHLRKFLRSKMDIPNTFQIDVMYEEEPLKDYYTLMDIAYIYTWRRNGPLPLKYRVRPTCKRMKMSHQRDGLTNAGELESDSGSDKANSPAGGVPSTSSCLPSPSTPVQSPHPQFPHISSTMNGTSNSPSANHQSSFASRPRKSSLNGSSATSSG
B3: FlagHis12-tagged mouse Ring1b (natural protein)
chain: MSQAVQTNGTQPLSKTWELSLYELQRTPQEAITDGLEIVVSPRSLHSELMCPICLDMLKNTMTTKECLHRFCADCIITALRSGNKECPTCRKKLVSKRSLRPDPNFDALISKIYPSRDEYEAHQERVLARINKHNNQQALSHSIEEGLKIQAMNRLQRGKKQQIENGSGAEDNGDSSHCSNASTHSNQEAGPSNKRTKTSDDSGLELDNNNAAVAIDPVMDGASEIELVFRPHPTLMEKDDSAQTRYIKTSGNATVDHLSKYLAVRLALEELRSKGESNQMNLDTASEKQYTIYIATASGQFTVLNGSFSLELVSEKYWKVNKPMELYYAPTKEHK
B4: CBX8-Flag purified from bacteria (natural protein)
chain: MELSAVGERVFAAEALLKRRIRKGRMEYLVKWKGWSQKYSTWEPEENILDARLLAAFEEREREMELYGPKKRGPKPKTFLLKAQAKAKAKTYEFRSDSARGIRIPYPGRSPQDLASTSRAREGLRNMGLSPPASSTSTSSTCRAEAPRDRDRDRDRDRERDRERERERERERERERERERGTSRVDDKPSSPGDSSKKRGPKPRKELPDPSQRPLGEPSAGLGEYLKGRKLDDTPSGAGKFPAGHSVIQLARRQDSDLVQCGVTSPSSAEATGKLAVDTFPARVIKHRAAFLEAKGQGALDPNGTRVRHGSGPPSSGGGLYRDMGAQGGRPSLIARIPVARILGDPEEESWSPSLTNLEKVVVTDVTSNFLTVTIKESNTDQGFFKEKR

target: GST-USP7 (human, UniProt Q93009-1 1-1102); test: pull-down
Sequence (Q93009 whole entry): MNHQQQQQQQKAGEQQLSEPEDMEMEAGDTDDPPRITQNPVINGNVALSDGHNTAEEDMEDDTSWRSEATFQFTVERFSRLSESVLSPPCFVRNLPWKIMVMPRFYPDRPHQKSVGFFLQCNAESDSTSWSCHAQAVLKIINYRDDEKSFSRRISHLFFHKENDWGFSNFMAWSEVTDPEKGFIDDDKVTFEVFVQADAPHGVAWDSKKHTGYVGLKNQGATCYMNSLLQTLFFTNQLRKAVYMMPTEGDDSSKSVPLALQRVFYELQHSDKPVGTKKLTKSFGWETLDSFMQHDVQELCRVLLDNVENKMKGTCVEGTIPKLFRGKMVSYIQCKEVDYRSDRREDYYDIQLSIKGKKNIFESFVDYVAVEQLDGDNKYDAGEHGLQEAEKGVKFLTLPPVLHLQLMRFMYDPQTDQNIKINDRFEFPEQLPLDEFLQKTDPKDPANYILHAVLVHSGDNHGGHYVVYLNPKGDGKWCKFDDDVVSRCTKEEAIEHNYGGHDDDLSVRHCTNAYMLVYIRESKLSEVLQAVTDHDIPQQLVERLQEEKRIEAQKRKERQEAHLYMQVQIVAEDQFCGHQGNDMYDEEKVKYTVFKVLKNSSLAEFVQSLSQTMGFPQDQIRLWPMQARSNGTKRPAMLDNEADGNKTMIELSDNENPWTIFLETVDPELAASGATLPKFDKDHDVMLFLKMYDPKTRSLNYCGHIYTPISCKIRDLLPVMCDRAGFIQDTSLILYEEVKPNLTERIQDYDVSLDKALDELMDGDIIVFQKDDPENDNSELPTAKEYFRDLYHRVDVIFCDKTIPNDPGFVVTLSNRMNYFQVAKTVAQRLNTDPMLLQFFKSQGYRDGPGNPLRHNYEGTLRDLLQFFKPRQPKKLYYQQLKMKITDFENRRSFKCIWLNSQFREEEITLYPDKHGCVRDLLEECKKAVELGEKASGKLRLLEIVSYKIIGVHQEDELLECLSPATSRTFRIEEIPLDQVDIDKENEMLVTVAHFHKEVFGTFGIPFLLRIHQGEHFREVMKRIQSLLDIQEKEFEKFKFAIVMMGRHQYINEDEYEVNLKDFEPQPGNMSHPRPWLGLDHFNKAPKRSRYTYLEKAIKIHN

Binder	binding result
B1	binds
B2	binds
B3	binds
B4	binds

Reference: article PMC2928679 (The EMBO Journal, 2010)
